koff data for 13 molecules are collected here from patent US20220380463A1 (Adimab, published 2022).

To fix the notation:
T1: Cynomolgus CD3εδ Fc heterodimer (Cy CD3ε Fc / CD3δ Fc-HIS) (cynomolgus, UniProt Q95LI8 22-100)
T1 chain 1: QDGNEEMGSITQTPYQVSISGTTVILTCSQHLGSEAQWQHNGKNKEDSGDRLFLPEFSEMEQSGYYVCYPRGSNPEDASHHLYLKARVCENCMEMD
T1 chain 2: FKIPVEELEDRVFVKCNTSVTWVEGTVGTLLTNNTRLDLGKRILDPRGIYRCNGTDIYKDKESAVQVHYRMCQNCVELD

B1: SAD10319_P06_E09 (ADI-57427) (antibody, V domains shown)
VH: QVQLVQSGAEVKKPGASVKVSCKASGYTFTAYDMHWVRQAPGQRLEWMGWINPDTGATVYSQKFQGRVTITRDTSASTAYMELSSLRSEDTAVYYCARDAYGRYFYDVWGQGTLVTVSS
VL: DIVMTQSPDSLAVSLGERATINCKSSQSLLNARTGKNYLAWYQQKPGQPPKLLIYWASTRESGVPDRFSGSGSGTDFTLTISSLQAEDVAVYYCKQSYSRRTFGGGTKVEIK
notes: IgG; also called Ab156
B2: SAD10319_P06_H08 (ADI-57434) (antibody, V domains shown)
VH: QVQLVQSGAEVKKPGASVKVSCKASGYTFESYDMHWVRQAPGQTLEWMGWIDAGTGATTYSQKFQGRVTITRDTSASTAYMELSSLRSEDTAVYYCARDAYHHYFYDVWGQGTLVTVSS
VL: DIVMTQSPDSLAVSLGERATINCKSSQSLLNARTGKNYLAWYQQKPGQPPKLLIYWASTRESGVPDRFSGSGSGTDFTLTISSLQAEDVAVYYCKQSYSRRTFGGGTKVEIK
notes: IgG; also called Ab164
B3: LAD9956_P01_C03 (ADI-57440) (antibody, V domains shown)
VH: QVQLVQSGAEVKKPGASVKVSCKASGFNIKDYYMHWVRQAPGQRLEWMGWIDLENANTIYDAKFQGRVTITRDTSASTAYMELSSLRSEDTAVYYCARDAYGRYFYDVWGQGTLVTVSS
VL: DIVMTQSPDSLAVSLGERATINCKSSQSLLNAHTHKNYLAWYQQKPGQPPKLLIYWASTRESGVPDRFSGSGSGTDFTLTISSLQAEDVAVYYCKQSYSRRTFGGGTKVEIK
notes: IgG; also called Ab171
B4: SAD10319_P06_G11 (ADI-57432) (antibody, V domains shown)
VH: QVQLVQSGAEVKKPGASVKVSCKASGYTFTDYDMHWVRQAPGQRLEWMGWINAGDAATVYSQKFQGRVTITRDTSASTAYMELSSLRSEDTAVYYCARDAYGHYFYDHWGQGTLVTVSS
VL: DIVMTQSPDSLAVSLGERATINCKSSQSLLNARTGKNYLAWYQQKPGQPPKLLIYWASTRESGVPDRFSGSGSGTDFTLTISSLQAEDVAVYYCKQSYSRRTFGGGTKVEIK
notes: IgG; also called Ab162
B5: SAD10319_P06_E10 (ADI-57428) (antibody, V domains shown)
VH: QVQLVQSGAEVKKPGASVKVSCKASGYTFTQYDMHWVRQAPGQTLEWMGDINAGTGVTVYSQKFQGRVTITRDTSASTAYMELSSLRSEDTAVYYCARDAYGRYFYDVWGQGTLVTVSS
VL: DIVMTQSPDSLAVSLGERATINCKSSQSLLNARTGKNYLAWYQQKPGQPPKLLIYWASTRESGVPDRFSGSGSGTDFTLTISSLQAEDVAVYYCKQSYSRRTFGGGTKVEIK
notes: IgG; also called Ab157
B6: LAD9966_P01_A08 (ADI-57445) (antibody, V domains shown)
VH: QVQLVQSGAEVKKPGASVKVSCKASGFNIKDYYMHWVRQAPGQRLEWMGWIDLENANTIYDAKFQGRVTITRDTSASTAYMELSSLRSEDTAVYYCARDAYGRYFYDVWGQGTLVTVSS
VL: DIVMTQSPDSLAVSLGERATINCKSSQSLLNARTGKNHLAWYQQKPGQPPKLLIYWASTRESGVPDRFSGSGSGTDFTLTISSLQAEDVAVYYCKQSYSRRTFGGGTKVEIK
notes: IgG; also called Ab176
B7: SAD10319_P06_G09 (ADI-57431) (antibody, V domains shown)
VH: QVQLVQSGAEVKKPGASVKVSCKASGYTFESYDMHWVRQAPGPRLEWMGWIDAGTGATTYSQKFQGRVTITRDTSASTAYMELSSLRSEDTAVYYCARDAYHHYFYDVWGQGTLVTVSS
VL: DIVMTQSPDSLAVSLGERATINCKSSQSLLNARTGKNYLAWYQQKPGQPPKLLIYWASTRESGVPDRFSGSGSGTDFTLTISSLQAEDVAVYYCKQSYSRRTFGGGTKVEIK
notes: IgG; also called Ab161
B8: SAD10319_P06_F10 (ADI-57430) (antibody, V domains shown)
VH: QVQLVQSGAEVKKPGASVKVSCKASGYTFVSYDMHWVRQAPGPSLEWMGWIDPNTGATVYSQKFQGRVTITRDTSASTAYMELSSLRSEDTAVYYCARDHYGHYFYDVWGQGTLVTVSS
VL: DIVMTQSPDSLAVSLGERATINCKSSQSLLNARTGKNYLAWYQQKPGQPPKLLIYWASTRESGVPDRFSGSGSGTDFTLTISSLQAEDVAVYYCKQSYSRRTFGGGTKVEIK
notes: IgG; also called Ab160
B9: LAD9963_P01_E06 (ADI-57443) (antibody, V domains shown)
VH: QVQLVQSGAEVKKPGASVKVSCKASGFNIKDYYMHWVRQAPGQRLEWMGWIDLENANTIYDAKFQGRVTITRDTSASTAYMELSSLRSEDTAVYYCARDAYGRYFYDVWGQGTLVTVSS
VL: DIVMTQSPDSLAVSLGERATINCKSSQSLLNAHTGKNYLAWYQQKPGQPPKLLIYWASTRESGVPDRFSGSGSGTDFTLTISSLQAEDVAVYYCKQSYSRRTFGGGTKVEIK
B10: SAD10319_P06_F07 (ADI-57429) (antibody, V domains shown)
VH: QVQLVQSGAEVKKPGASVKVSCKASGYTFESYDMHWVRQAPGQPLEWMGWIDAGTGATTYSQKFQGRVTITRDTSASTAYMELSSLRSEDTAVYYCARDAYHHYFYDVWGQGTLVTVSS
VL: DIVMTQSPDSLAVSLGERATINCKSSQSLLNARTGKNYLAWYQQKPGQPPKLLIYWASTRESGVPDRFSGSGSGTDFTLTISSLQAEDVAVYYCKQSYSRRTFGGGTKVEIK
notes: IgG; also called Ab159
B11: SAD10319_P06_H10 (ADI-57435) (antibody, V domains shown)
VH: QVQLVQSGAEVKKPGASVKVSCKASGYTFESYDMHWVRQAPGPRLEWMGWIDAGTGNTKYSQKFQGRVTITADESTSTAYMELSSLRSEDTAVYYCARDHYGHYFYDVWGQGTLVTVSS
VL: DIVMTQSPDSLAVSLGERATINCKSSQSLLNARTGKNYLAWYQQKPGQPPKLLIYWASTRESGVPDRFSGSGSGTDFTLTISSLQAEDVAVYYCKQSYSRRTFGGGTKVEIK
notes: IgG; also called Ab165
B12: SAD10319_P06_H11 (ADI-57436) (antibody, V domains shown)
VH: QVQLVQSGAEVKKPGASVKVSCKASGYTFTDYDMHWVRQAPGHRLEWMGWINAGDAATVYSQKFQGRVTITRDTSASTAYMELSSLRSEDTAVYYCARDAYGHYFYDHWGQGTLVTVSS
VL: DIVMTQSPDSLAVSLGERATINCKSSQSLLNARTGKNYLAWYQQKPGQPPKLLIYWASTRESGVPDRFSGSGSGTDFTLTISSLQAEDVAVYYCKQSYSRRTFGGGTKVEIK
notes: IgG; also called Ab166
B13: SAD10319_P06_H07 (ADI-57433) (antibody, V domains shown)
VH: QVQLVQSGAEVKKPGASVKVSCKASGYTFVSYNMHWVRQAPGQRLEWMGSINAGDANTKYSQKFQGRVTITRDTSASTAYMELSSLRSEDTAVYYCARDHYGHYFYDVWGQGTLVTVSS
VL: DIVMTQSPDSLAVSLGERATINCKSSQSLLNARTGKNYLAWYQQKPGQPPKLLIYWASTRESGVPDRFSGSGSGTDFTLTISSLQAEDVAVYYCKQSYSRRTFGGGTKVEIK
notes: IgG; also called Ab163

This assay concerns the target T1, Cynomolgus CD3εδ Fc heterodimer (Cy …). Put plainly: BLI (Octet), IgG on AHC sensor, pH 6.0. Background: BLI is a label-free optical method that tracks binding on a fibre tip over time.
By koff is commonly meant the first-order rate constant of dissociation. Low values mean a long-lived complex, high ones a short-lived complex. B1 registered a koff of 0.0122 s⁻¹.

In turn, B2 had a koff of 0.0231 s⁻¹. Under B3 stands 0.000913 s⁻¹; under B4, 0.00924 s⁻¹. The molecule B5 yielded a koff of 0.00575 s⁻¹. Compared with the last molecule, the koff is about 1.6-fold lower.

In turn, B6 came in with a koff of 0.0035 s⁻¹. Regarding B7, the koff is 0.00258 s⁻¹. The koff values of the last two molecules are within 1.5-fold of each other. In the case of B8 it was 0.00663 s⁻¹.

Regarding B9, the koff stood at 0.000866 s⁻¹. Compared with the last molecule, the koff is about 7.7-fold lower.

B10 yielded a koff of 0.0251 s⁻¹.

Molecule B11 registered a koff of 0.0267 s⁻¹. B12 returned a koff of 0.0285 s⁻¹. Under B13 stands 0.00901 s⁻¹.
